Data on 1 protein can be found in FireProtDB (doi:10.1021/bi951726o).

For the data set the following is noted: Escherichia coli (strain K12), pH 7.8, Urea, NMR, Potassium phosphate 58 mM, reversible: yes, whole UniProt chain shown.

B1: Tryptophan synthase alpha chain wild type, P0A877 (protein)
chain: MERYESLFAQLKERKEGAFVPFVTLGDPGIEQSLKIIDTLIEAGADALELGIPFSDPLADGPTIQNATLRAFAAGVTPAQCFEMLALIRQKHPTIPIGLLMYANLVFNKGIDEFYAQCEKVGVDSVLVADVPVEESAPFRQAALRHNVAPIFICPPNADDDLLRQIASYGRGYTYLLSRAGVTGAENRAALPLNHLVAKLKEYNAAPPLQGFGISAPDQVKAAIDAGAAGAISGSAIVKIIEQHINEPEKMLAALKVFVQPMKAATRS
For the protein B1, the “denaturant midpoint (higher = more stable)” value was found to be 4.8 M (5 °C); 4.6 M (10 °C); 4.7 M (15 °C); 5.4 M (20 °C); 5.9 M (25 °C). For the same protein, the unfolding free energy runs as follows: (5 °C) 4.8 kcal/mol; (10 °C) 5.5 kcal/mol; (15 °C) 6.1 kcal/mol; (20 °C) 7.5 kcal/mol; (25 °C) 8.2 kcal/mol.
